Article PMC9198048, “Ursodeoxycholic acid reduces antitumor immunosuppression by inducing CHIP-mediated TGF-β degradation” (Nature Communications, 2022)

Molecular target: T1, Flag-TGF-β1WT (UniProt P04202 30-390)
T1 construct: TGF-β1 expressed from PCMV6-TGF-β1-Flag, constructed from the Origene plasmid PCMV6-TGF-β1-Myc-Flag (MR227339); Origene MR clones are mouse ORF clones as far as I recall; the printed sites T282 and K315 fit the precursor numbering of mouse and human TGF-β1; In cells the protein may be phosphorylated (T282) and ubiquitinated (K315); also called PCMV6-TGF-β1-Flag; source: HEK293T, transfected, in …
Assay: pull-down; about 1 µg His-CHIP bound to His beads mixed with 1 µg Flag-TGF-β1WT or Flag-TGF-β1T282A, 4 °C overnight, washed three times with cell lysis buffer, immunoblot
Conditions: both partners purified

T1 sequence (P04202 30-390): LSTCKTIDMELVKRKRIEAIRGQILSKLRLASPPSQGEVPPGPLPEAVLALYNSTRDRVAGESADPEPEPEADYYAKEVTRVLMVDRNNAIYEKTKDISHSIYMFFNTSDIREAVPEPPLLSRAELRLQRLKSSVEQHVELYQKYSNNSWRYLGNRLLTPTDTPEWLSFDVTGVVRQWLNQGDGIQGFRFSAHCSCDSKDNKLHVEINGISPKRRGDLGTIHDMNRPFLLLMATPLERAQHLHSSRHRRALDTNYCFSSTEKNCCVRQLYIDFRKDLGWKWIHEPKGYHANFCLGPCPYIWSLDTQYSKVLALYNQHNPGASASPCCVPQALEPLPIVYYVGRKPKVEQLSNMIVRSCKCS

- binding result: binds
B1: His-CHIP (enzyme, UniProt Q9WUD1 1-304, looked up)
chain: MKGKEEKEGGARLGTGGGGSPDKSPSAQELKEQGNRLFVGRKYPEAAACYGRAITRNPLVAVYYTNRALCYLKMQQPEQALADCRRALELDGQSVKAHFFLGQCQLEMESYDEAIANLQRAYSLAKEQRLNFGDDIPSALRIAKKKRWNSIEERRIHQESELHSYLTRLIAAERERELEECQRNHEGHEDDGHIRAQQACIEAKHDKYMADMDELFSQVDEKRKKRDIPDYLCGKISFELMREPCITPSGITYDRKDIEEHLQRVGHFDPVTRSPLTQEQLIPNLAMKEVIDAFISENGWVEDY
notes: also called PCMV6-CHIP-His
